The nature of the data set: yeast display, Sf9 membrane polyspecificity reagent, FACS + sequencing; frameworks hold sequencing errors. The method in brief:
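A nanobody's polyreactivity label depends on the gate it was sorted from. Yeast display cells were stained with 10% biotinylated, detergent-solubilized Sf9 membrane reagent for 1 hour at 4 °C, enriched on streptavidin microbeads and sorted by FACS. The low and high (top ~1%) gates were set on anti-HA fluorescence for expression and streptavidin fluorescence for reagent binding.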
For “QVQLVESGGGLVQAGGSLRLSCAASGSTFHRYAMGWSRQAPGKERELVATINLNTGSTYADSVKGRFTISRDNAKNTVYVQMNSLKPEDTAVYYCAAYGRWPFTWYNYWGQGTQVTVSS”, the “polyreactivity (PSR sort gate)” value is on record as “low polyreactivity”.

For the sequence “QVQLVESGGGLVQAGGSLRLSCAASGSTFHRYAMGWYRQAPGKERELVATITSRGGITYYADSVKGRFTISRDNSKNTVYLQMNSLNPEDTALYYCNTEDGTTPQYGYDQGMYYWGQGTQVTVSS”, the “polyreactivity (PSR sort gate)” value was “low polyreactivity”.

Regarding “QVQLVESGGGLVQAGGSLRLSCAASGSTFHTYVMGWYRQAPGKERELVASISSGGSTYYADSVKGRFTISRDNAKNTVSLQMNSLKPEDTAVYYCAAGYPYYWHFDYWGQGSQVTVSS”, the “polyreactivity (PSR sort gate)” value was “low polyreactivity”.

As to “QVQLVESGGGLVQAGGSLRLSCAASGSTFHWYDMGWYRQAPGKERELVAGINTSGDGTYYADSVKGRFTISRDNAKNTVYLQMNSLKPEDTAVYYCAAEYYTYWGYEDDYWGQGTQVTVSS”, the “polyreactivity (PSR sort gate)” value is recorded as “low polyreactivity”.

Consider “QVQLVESGGGLVQAGGSLRLSCAASGSTFHYYAMGWYRQAPGKERELVAAINSGARTYYADSVKGRFTISRDNAKNTVYLQMNSLKPEDTAVYYCAKDYTYSFGRSLDYWGQGTQVTVSS”, for which the “polyreactivity (PSR sort gate)” value is recorded as “low polyreactivity”.

Regarding “QVQLVESGGGLVQAGGSLRLSCAASGSTFHYYAMGWYRQEPGKERELVAAISGSGSSTYYADSVKGRFTISRDNAKNTVYLQMNSLKPEDTAVYYCNARGHYPRARFGYKSGSDRYWGQGTQVTVSS”, the “polyreactivity (PSR sort gate)” value was “high polyreactivity”.

Consider “QVQLVESGGGLVQAGGSLRLSCAASGSTFIDYAMGWYRQAPGKERELVASITWSGGSTYYADSVKGRFTISRDNAKNTVYLQMNSLKPEDTAVYYCNADVNVGLEVRIVYEYDYWGQGTQVTVSS”, for which the “polyreactivity (PSR sort gate)” value is “low polyreactivity”.

Take “QVQLVESGGGLVQAGGSLRLSCAASGSTFIGYDMGWFRQAPGTERELVAAISYSDGTYYADSVKGRFTISRDNAKNTVYLQMNSLKPEDTAVYYCAADSLYYRYDYWGQGTQVTVSS”: the “polyreactivity (PSR sort gate)” value was “low polyreactivity”.

As for “QVQLVESGGGLVQAGGSLRLSCAASGSTFIGYDMGWYRQAPGQERELVAAISYSDGTYYADSVKGRFTISRDNAKNTVYLQMNSLKPEDTAVYYCATSYRDMGSHVGYWGQGTQLTVSS”, the “polyreactivity (PSR sort gate)” value was “low polyreactivity”.

Consider “QVQLVESGGGLVQAGGSLRLSCAASGSTFILNAMGWYRQAPGKEWELVAAISRSGGNTYYADSVKGRFTISRDIAKNTVYLQMNSLKPEDTAVYYCAATRRSHYYYWGQGTQVTVSS”, for which the “polyreactivity (PSR sort gate)” value is given as “high polyreactivity”.

Regarding “QVQLVESGGGLVQAGGSLRLSCAASGSTFILNDMGWYRQAPGKERELVAAIDWGDSTTYYADSVKGRFTISRDNAKNTVYLQMNSLKPEDTAVYYCAADYAVSAFTRYPPTEYWGQGTQVTVSS”, the “polyreactivity (PSR sort gate)” value is “high polyreactivity”.

In the case of “QVQLVESGGGLVQAGGSLRLSCAASGSTFILNYMGWYRQAPGKERELVAAIDWGDSTTYYADSVKGRFTISRDNAKNTVYLQMNSLKPEDTAVYYCAADFAVSAFTRYPPTEYWGQGTQVTVSS”, the “polyreactivity (PSR sort gate)” value is reported as “high polyreactivity”.

On to “QVQLVESGGGLVQAGGSLRLSCAASGSTFIPNTMGWYRQEPGKERELVAAISRRGGSTNYADSVKGRFTISRDNAKYTVYLQMNSLKPEDTAVYYCAAVSPRRYRYDYWGQGTQVTVSS”, for which the “polyreactivity (PSR sort gate)” value is given as “low polyreactivity”.

With “QVQLVESGGGLVQAGGSLRLSCAASGSTFIRNAMGWYRQAPGKERELVAAISSSGGRTYYADSVKGRFTISRDNAKNTVYLQMNSLKPEDTAVYYCAARNARYVHTMEYWGQGTQVTVSS”, the “polyreactivity (PSR sort gate)” value is recorded as “high polyreactivity”.

As for “QVQLVESGGGLVQAGGSLRLSCAASGSTFIRNAMGWYRQAPGKERELVAVISSGGSTYYADSVKGRFTISRDNAKNTVYLQMNSLKPEDTAVYYCAAGDPQKEDYWGQGTQVTVSS”, the “polyreactivity (PSR sort gate)” value is listed as “low polyreactivity”.

For “QVQLVESGGGLVQAGGSLRLSCAASGSTFISNAMGWYRQAPGKEREFVAAITSSGGSTYYADSVKGRFTISRDNAKNSVYLQMNSLKPEDSAVYYCARDVWSPDYLYDYWGQGTQVTVSS”, the “polyreactivity (PSR sort gate)” value was “low polyreactivity”.

As for “QVQLVESGGGLVQAGGSLRLSCAASGSTFISNAMGWYRQAPGKERELVAAITRRGGGTYYADSVKGRFTISRDNAMNTVYLQMNSLKPEDTAVYYCAARPWWRGYRFDYWGQGTQVTVSS”, the “polyreactivity (PSR sort gate)” value was “high polyreactivity”.

Take “QVQLVESGGGLVQAGGSLRLSCAASGSTFISYAMGWSRQAPGKERELVAAISRNGGRTYYADSVKGRFTISRDNAKNTVYLQMNSLKPEDTAVYYCAAAYNSYRFDYWGQGTQVTVSS”: the “polyreactivity (PSR sort gate)” value is given as “high polyreactivity”.

With “QVQLVESGGGLVQAGGSLRLSCAASGSTFISYAMGWYRQAPGKEREWVAAISRRGDSTYYADSVKGRFTISRDNAKNTVYLQMKSLKPEDTAVYYCAADVSGDKGSIHMNYWGQGTQVTVSS”, the “polyreactivity (PSR sort gate)” value is given as “low polyreactivity”.

Take “QVQLVESGGGLVQAGGSLRLSCAASGSTFITYAMGWYRQAPGKERELVAAIRFSGDTTYADSVKGRFTISRDNAKNTVNLQLNCLKPEDTAVYYCAVVLYRYDGRKYWRDYWGQGTQVTVSS”: the “polyreactivity (PSR sort gate)” value is “high polyreactivity”.

As to “QVQLVESGGGLVQAGGSLRLSCAASGSTFIYNAMGWYRLAPGKEREFVAGITGSGGSTYYADSVKGRFTISRDNAKNTVYLQMNSLKPEDTAVNYCNADSPVVNYADLDYWGQGTQVSVSS”, the “polyreactivity (PSR sort gate)” value was “low polyreactivity”.

On to “QVQLVESGGGLVQAGGSLRLSCAASGSTFIYYTMGWYRQAPGKERELVAAINGGGGSTYYADSVKGRFTISRDNAKNTVYLQMTSLKPEDTAVYYCATDPWHRAWGYGWGYNYWGQGTQVTVSS”, for which the “polyreactivity (PSR sort gate)” value is “low polyreactivity”.

For “QVQLVESGGGLVQAGGSLRLSCAASGSTFIYYTMVWYRQAPGKERELVAAIPSSGGSTYYADSVKGRFTISRDNAKNTVYLQMNSLKPEDNAVYYCAADGTYIKFAKLYRSYDYWGQVTQVTVSS”, the “polyreactivity (PSR sort gate)” value is reported as “low polyreactivity”.

On to “QVQLVESGGGLVQAGGSLRLSCAASGSTFKIYAMGWYRQAPGKERELVARITGRGGSTYYADSVKGRFTISRDNAKNTVYLQMNSLKPEDTAVYYCAREWYQYSPYHRFDYWGQGTQVTVSS”, for which the “polyreactivity (PSR sort gate)” value is given as “high polyreactivity”.

Take “QVQLVESGGGLVQAGGSLRLSCAASGSTFKKYAMGWYRQAPGKERELVATISKNGGSTYYADSVNGRFTISRDNAKNTVYLQMNSLKPEDTAVYYCATRWWYYRTWYDYWGQGTQVTVSS”: the “polyreactivity (PSR sort gate)” value is reported as “high polyreactivity”.

Regarding “QVQLVESGGGLVQAGGSLRLSCAASGSTFKPNAMGWYRQAPGKERELVAAISGSGGSTYYADSVKGRFTISRDNAKNTVYLQMNSLKPEDTAVYYCAAYVYTIFSWYDYWGQGTQVTVSS”, the “polyreactivity (PSR sort gate)” value is listed as “high polyreactivity”.

Turning to “QVQLVESGGGLVQAGGSLRLSCAASGSTFKPYAMGWYRQAPGKERELVAAISKSGGSTRYADSVKGRFTISRDNAKNTVYLQMNSLKPEDTAVYYCAADYIYVKYEYWGQGTQVTVSS”, the “polyreactivity (PSR sort gate)” value is “high polyreactivity”.

Consider “QVQLVESGGGLVQAGGSLRLSCAASGSTFKPYAMGWYRQAPGKERELVAAISRGTRTYADSVKGRFTITRDNAKNTVYLQMNSLKPEDTAVYYCAAEWRWIFGYHYEYDYWGQGTQVTVSS”, for which the “polyreactivity (PSR sort gate)” value is “low polyreactivity”.

Consider “QVQLVESGGGLVQAGGSLRLSCAASGSTFKPYAMGWYRQAPGKERELVADISGRGGSTYYADSVKGRFTISRDNAKKTVYLQMNSLKPEDTAVFYCATYSSRQRKSSYYYWGQGTHVTVSS”, for which the “polyreactivity (PSR sort gate)” value is “high polyreactivity”.

Consider “QVQLVESGGGLVQAGGSLRLSCAASGSTFKRYAMGWYRQAPGKERELVAAISTRGSTYYADSVKGRFTISRDNAKNTVYFQMNSLKPEDTAVYYCIARQALVWKWYWYSPGYDYWGQGTQVTVSS”, for which the “polyreactivity (PSR sort gate)” value is on record as “low polyreactivity”.

For the sequence “QVQLVESGGGLVQAGGSLRLSCAASGSTFKRYAMGWYRQAPGKEWELVAAISASGGSTSYADSVKGRFTISRDKAKNTVYLQMNSLIPEDTAVYYCARDRFRSRLDYWGQGTQVTVSS”, the “polyreactivity (PSR sort gate)” value was “high polyreactivity”.

Take “QVQLVESGGGLVQAGGSLRLSCAASGSTFKSYTMGWYRQAPGKERELVAAISGSGGRTYYADSVKGRFTISRDNAKNTVYLQMNSLKPEDTAVYYCAATGPYGFYWGQGTQVTVSS”: the “polyreactivity (PSR sort gate)” value is listed as “high polyreactivity”.

“QVQLVESGGGLVQAGGSLRLSCAASGSTFKTYAMGWYRQAPGKEREFVASISGSGGSTRYADSVKGRFTISRDNAKNTVYLQMNSLKPEDTAVYYCAARLQKPTNGKGVYYWGQGTQVTVSS”: the “polyreactivity (PSR sort gate)” value is listed as “high polyreactivity”.

With “QVQLVESGGGLVQAGGSLRLSCAASGSTFKVYAMGWYRQAPGKERELVATISKSGSTYADSVKGRFTISRDNAKNTVYLQMNCLKPEDTAVYYCAADLYTYPRTRRRAYGYWGQGTQVTVSS”, the “polyreactivity (PSR sort gate)” value is “high polyreactivity”.

Turning to “QVQLVESGGGLVQAGGSLRLSCAASGSTFKWNAMGWYRQAPGKERELVAAINSGGSTYYADSVKGRFTISRDNAKNTVYLQMNSLKPEDTAVYYCAKKWAVRTPFRYGIRYDYWGQGTQVTVSS”, the “polyreactivity (PSR sort gate)” value is recorded as “low polyreactivity”.

Take “QVQLVESGGGLVQAGGSLRLSCAASGSTFKWYAMGWYRQAPGKERELVAAINWSSGRTYYADSVKGRFTISRDNAKNTVYLQMNSLKPEDTAVYYCAAEAGYFSWRTMDYWGQGTQVTVSS”: the “polyreactivity (PSR sort gate)” value is reported as “high polyreactivity”.

Regarding “QVQLVESGGGLVQAGGSLRLSCAASGSTFKYYAMGWYRQAPGKERELVASISRGGSTNYADSVKGRFTISRDNAKNTVYLQMNSLKPEDTAVYYCAKRRAGTAYDYWGQGTQVTVSS”, the “polyreactivity (PSR sort gate)” value was “high polyreactivity”.

For “QVQLVESGGGLVQAGGSLRLSCAASGSTFLDNAMGWYIQAPGKERELVAAITQSGSSTYYPDSVKGRFTISRDTAKNTVYLQMNSLKPEATAVYYCAADVPNISFDYWGQGTQVTVSS”, the “polyreactivity (PSR sort gate)” value is recorded as “low polyreactivity”.

As to “QVQLVESGGGLVQAGGSLRLSCAASGSTFLDNAMGWYRQAPGKERELVAAISSDGSTYYANSVKGRFTISRDNAKNTVYIQMNSLKPEDTAVYYCAAEYRYYGFWYDYWGQGTQVTVSS”, the “polyreactivity (PSR sort gate)” value is given as “high polyreactivity”.

As for “QVQLVESGGGLVQAGGSLRLSCAASGSTFLDYAMGWYRQAPGNERELVAAISPDDSSTYYADSVKARFTISRDKAKNTVSLHMTSLKPEDTAVYYFAADDRDWVNYDYWGQGTQVTVSS”, the “polyreactivity (PSR sort gate)” value was “low polyreactivity”.

For “QVQLVESGGGLVQAGGSLRLSCAASGSTFLDYDMGWYRQAPGKERELVATINSVGSTYYADSVKGRFTISRDNAKNTVYLQMKSLKPEDTAVYYCAASQEPGWYPDVWWEYDYWGQGTQVTVSS”, the “polyreactivity (PSR sort gate)” value was “low polyreactivity”.

These data come from the nanobody polyreactivity screen of Harvey et al. (2022).
